The text below walks through data of patent US7026443.

This assay addresses HLA-A*6802 (human). The assay is described as follows: competition with 125I-labelled standard peptide on purified HLA, gel filtration.

As for HPV16 E7 86 TLGIVCPI (peptide), the binding affinity ratio (IC50 of standard peptide / IC50 of test peptide) is 0.0047.
